The record followed here is paper PMC6286779, “HLA-A2-Restricted Epitopes Identified from MTA1 Could Elicit Antigen-Specific Cytotoxic T Lymphocyte Response” (Journal of Immunology Research, 2018).

For assay [1], the system named is SW620 cells (HLA-A2+, MTA1+). The experiment in a line: LDH cytotoxicity assay, CTLs induced in HLA-A2.1/Kb transgenic mice. It counts as in vivo, human. Particulars: mice immunized with MTA1(1–283) days 0 and 7; E/T 50 : 1 and 25 : 1; significant vs PBS. The protocol: In vivo induction of peptide-specific CTLs was performed as previously described. Briefly, peptide (100 μg) and the IA^b-restricted HBV-core128 T helper epitope (140 μg) emulsified in incomplete Freund's adjuvant (IFA) were used to subcutaneously immunize at the base of the tail of HLA-A2.1/K^b transgenic mice three times on days 0, 5, and 10. On day 11, all mice were sacrificed through cervical dislocation. Spleen lymphocytes were isolated and restimulated once with 10 μg/ml peptide and 10 U/ml mIL-2 in vitro for an additional 6 days. LDH and IFN-γ ELISPOT assays were performed on day 6 after in vitro stimulation. […]
(§1) To test the effects of protein, each HLA-A2.1/K^b transgenic mouse was injected subcutaneously at the base of the tail with 100 μg MTA1(1–283) or the same volume of PBS emulsified in IFA twice on days 0 and 7. On day 14, spleen lymphocytes were harvested and stimulated by peptide pool (10 μg/ml) in vitro for another 6 days. LDH, IFN-γ ELISPOT, and IFN-γ intracellular cytokine staining assays were performed on day 6 after the in vitro stimulation. E/T ratios used in the LDH assay were 12.5 : 1, 25 : 1, and 50 : 1.
(§2) Cytotoxic activity of induced T cells was tested based on the quantitation of LDH release using the nonradioactive cytotoxicity assay kit (Promega, USA) at the gradient E/T ratio [29, 31]. Target cells which expressed different levels of MTA1 or peptide-pulsed T2 cells were used as target cells. The anti-human HLA-A2 antibody (BB7.2) was added 30 min before adding effector cells to determine the HLA restriction. Target cells (5 × 10^3/well) were cocultured with the effector cells at 37°C for 4 h. The percentage of specific lysis of the target cells was determined using the equation: percentage of specific lysis = [(experimental release − effector spontaneous release − target spontaneous release)/(target maximum release − target spontaneous release)] × 100.

For assay [2], the system named is HLA-A2.1/K^b transgenic mice. Nature of the assay: IFN-γ intracellular cytokine staining, CD4+ T cells. The assay is classed as in vivo. Particulars: mice immunized with MTA1(1–283); CD3+CD8− subset. As for the experimental part:
as §1
(§3) To test the protein MTA1(1–283) stimulation of CTL response in vivo, IFN-γ release of induced CTLs was determined by the intracellular cytokine staining assay according to our former study. In brief, on day 14, spleen lymphocytes were harvested and stimulated by peptide pool (10 μg/ml) in vitro for another 6 days. Then, restimulated splenocytes were incubated with peptide-loaded T2 cells or T2 cells only for 3 h. Subsequently, protein transport inhibitor cocktail was added to splenocytes for another 4 h. Then, those cells were stained with Anti-mouse CD3 PerCP-eFluor® 710 (clone: 17A2, eBioscience) and Anti-mouse CD8α PE (clone: 53–6.7, eBioscience) at 4°C for 30 min. […] Those cells were washed twice by permeabilization buffer and analyzed by flow cytometry.

A further assay relates to SW620 (HLA-A2+, MTA1+). The experiment in a line: LDH cytotoxicity assay, CTLs induced in vitro. The assay is classed as cell-based, human. Particulars: PBMCs induced by 50 μg/ml MTA1(1–283); E/T 50 : 1; LDH assay; n = 4. As for the experimental part: (§4) CTL induction in vitro was conducted according to the procedures previously described. Briefly, PBMCs from eight HLA-A^∗02^+ healthy donors were isolated using Ficoll-Paque density gradient centrifugation and resuspended in RPMI 1640 medium supplemented with 10% FBS. Then, PBMCs were stimulated three times (once a week) with the indicated peptides (10 μg/ml) or protein MTA1(1–283) (at final concentrations of 0, 1, 10, 30, and 50 μg/ml) for 21 days. Human recombinant cytokine interleukin-2 (IL-2) (50 U/ml) was added on day 3 and 1 day after each stimulation. The cytotoxic assay (lactate dehydrogenase (LDH) assay) and IFN-γ secretion enzyme-linked immunospot (ELISPOT) assay were performed on day 21.
as §2

Assay [3] concerns PBMCs from HLA-A*02+ healthy donors. Nature of the assay: IFN-γ ELISPOT of CTLs induced in vitro. It counts as cell-based, human. Particulars: PBMCs stimulated with MTA1(1–283) once a week for 21 days; stimulators T2 cells with peptide pool 50 μg/ml; n = 4. As for the experimental part: as §4
The ELISPOT assay was performed using a commercial kit (Dakewe, China) according to the procedures previously described. Briefly, T2 cells incubated with/without candidate peptide (50 μg/ml) were used as the stimulating cells, effector cells (1 × 10^5) and stimulator cells (peptide-pulsed T2 cells or T2 cells only, 1 × 10^5) were seeded into the 96-well plate precoated with an anti-human (or anti-mouse) IFN-γ antibody. After incubation at 37°C for 18 h, cells were removed, and plates were processed for analysis as instructed. The spot number was determined automatically using a computer-assisted spot analyzer (Dakewe, China).

In assay [4] the test system is HLA-A2.1/K^b transgenic mice. Nature of the assay: IFN-γ intracellular cytokine staining, CD8+ T cells. The assay is classed as in vivo. The conditions noted are these: mice immunized with MTA1(1–283); splenocytes restimulated with peptide pool; T2 cells pulsed with each peptide; vs PBS, P < 0.001. As for the experimental part:
as §1, §3

Assay [5] has as its system HLA-A2.1/K^b transgenic mice. Nature of the assay: Serum IFN-γ ELISA after immunization. The conditions noted are these: mice immunized with 100 μg/ml MTA1(1–283) in IFA days 0 and 7; serum day 14; vs PBS, P < 0.001; n = 5. The assay is classed as in vivo. (In general: An ELISA detects its analyte on a solid surface through an enzyme-linked reagent.)

B1: MTA1(1–283): recombinant fragment of MTA1, first 283 amino acids, expressed in E. coli from pET28a, containing the predominant epitopes (protein, UniProt Q13330 1-283, looked up, fragment)
chain: MAANMYRVGDYVYFENSSSNPYLIRRIEELNKTANGNVEAKVVCFYRRRDISSTLIALADKHATLSVCYKAGPGADNGEEGEIEEEMENPEMVDLPEKLKHQLRHRELFLSRQLESLPATHIRGKCSVTLLNETESLKSYLEREDFFFYSLVYDPQQKTLLADKGEIRVGNRYQADITDLLKEGEEDGRDQSRLETQVWEAHNPLTDKQIDQFLVVARSVGTFARALDCSSSVRQPSLHMSAAAASRDITLFHAMDTLHKNIYDISKAISALVPQGGPVLCRD
As to B1, in assay [1], the “lysis of SW620 tumor cells by T cells induced in vivo by protein” value is “could kill SW620 tumor cells”. In addition, in assay [2], the “percentage of IFN-γ+ CD4+ T cells” value is listed as “a certain percentage of IFN-γ ^+ CD4^+ T cells”. In the assay on SW620 (HLA-A2+, MTA1+), the “rate of lysis of SW620 cells by protein-induced CTLs” value was 50.01%. In addition, in assay [3], the “IFN-γ secretion of protein-induced CTLs, ELISPOT” value was “can secrete IFN-γ”. The “percentage of IFN-γ+ CD8+ T cells” value in assay [4] is listed as “a higher percentage of IFN-γ ^+ CD8^+ T cells compared with the PBS group”. In assay [5], the “IFN-γ secretion in vivo (serum IFN-γ, ELISA)” value was “secreted more IFN-γ compared with the PBS control group”.
